Experimental data taken from patent US20220348620A1 (WISTAR INSTITUTE OF ANATOMY AND BIOLOGY, published 2022).
Where a chain is given by its changes, count along the chain named. Names may count otherwise.

Key:
[1] = molecular target: T1, hexokinase-II (HK-II), endogenous in PC3 cells (human, UniProt P52789 1-917); assay: co-immunoprecipitation with anti-Flag from transfected PC3 cells, Western blot and densitometry (AU)
T1 sequence (looked up): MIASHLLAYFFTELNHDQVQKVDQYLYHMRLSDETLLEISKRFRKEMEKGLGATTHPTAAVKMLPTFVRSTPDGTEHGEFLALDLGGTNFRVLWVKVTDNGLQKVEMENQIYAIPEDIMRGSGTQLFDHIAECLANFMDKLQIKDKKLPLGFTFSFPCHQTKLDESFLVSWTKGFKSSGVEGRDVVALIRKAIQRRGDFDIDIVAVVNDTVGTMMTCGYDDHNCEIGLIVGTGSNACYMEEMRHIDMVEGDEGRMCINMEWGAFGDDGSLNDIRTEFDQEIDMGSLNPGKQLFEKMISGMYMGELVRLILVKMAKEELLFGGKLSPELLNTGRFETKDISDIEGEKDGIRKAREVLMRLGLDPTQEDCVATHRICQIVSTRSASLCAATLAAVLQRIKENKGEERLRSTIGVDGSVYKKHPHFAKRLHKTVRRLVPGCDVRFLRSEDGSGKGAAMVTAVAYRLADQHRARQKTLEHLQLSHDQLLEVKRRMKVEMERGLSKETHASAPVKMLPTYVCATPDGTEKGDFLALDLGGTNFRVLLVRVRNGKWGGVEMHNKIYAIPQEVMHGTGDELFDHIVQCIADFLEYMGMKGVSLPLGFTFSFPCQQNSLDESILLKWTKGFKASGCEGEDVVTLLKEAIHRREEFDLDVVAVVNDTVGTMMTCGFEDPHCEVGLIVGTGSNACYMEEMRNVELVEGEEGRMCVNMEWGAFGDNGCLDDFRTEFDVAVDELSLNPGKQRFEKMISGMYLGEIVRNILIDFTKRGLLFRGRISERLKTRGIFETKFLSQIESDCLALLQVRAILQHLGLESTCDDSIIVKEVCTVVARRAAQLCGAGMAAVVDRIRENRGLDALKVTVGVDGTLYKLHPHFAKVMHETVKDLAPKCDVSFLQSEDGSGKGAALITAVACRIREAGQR

[2] = molecular target: T2, hexokinase-I (HK-I), endogenous in PC3 cells (human, UniProt P19367 1-917); assay: co-immunoprecipitation with anti-Flag from PC3 cells, Western blot
T2 sequence (looked up): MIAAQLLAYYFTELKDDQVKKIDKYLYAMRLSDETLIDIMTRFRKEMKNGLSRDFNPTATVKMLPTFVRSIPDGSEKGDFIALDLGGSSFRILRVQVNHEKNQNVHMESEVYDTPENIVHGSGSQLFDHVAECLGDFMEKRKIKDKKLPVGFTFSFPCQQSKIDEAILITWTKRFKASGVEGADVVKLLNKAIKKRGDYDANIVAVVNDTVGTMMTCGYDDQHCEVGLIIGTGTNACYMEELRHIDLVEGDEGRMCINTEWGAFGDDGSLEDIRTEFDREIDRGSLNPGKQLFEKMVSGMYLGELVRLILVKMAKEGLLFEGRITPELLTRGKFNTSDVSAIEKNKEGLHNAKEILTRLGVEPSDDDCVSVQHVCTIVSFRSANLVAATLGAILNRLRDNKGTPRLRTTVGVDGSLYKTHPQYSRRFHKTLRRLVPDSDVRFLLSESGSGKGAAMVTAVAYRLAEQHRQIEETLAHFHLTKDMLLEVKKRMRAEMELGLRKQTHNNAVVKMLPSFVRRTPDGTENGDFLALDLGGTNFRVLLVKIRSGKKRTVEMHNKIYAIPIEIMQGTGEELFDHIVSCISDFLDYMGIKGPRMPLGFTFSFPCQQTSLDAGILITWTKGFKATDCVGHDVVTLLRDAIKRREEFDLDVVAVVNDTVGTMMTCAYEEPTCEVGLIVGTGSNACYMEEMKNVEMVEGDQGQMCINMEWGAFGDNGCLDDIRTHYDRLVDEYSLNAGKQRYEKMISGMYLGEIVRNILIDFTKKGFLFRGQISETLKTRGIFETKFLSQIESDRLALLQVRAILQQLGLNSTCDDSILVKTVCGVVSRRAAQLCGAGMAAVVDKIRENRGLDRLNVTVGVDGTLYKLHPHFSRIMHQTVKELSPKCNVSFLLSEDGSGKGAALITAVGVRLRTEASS

[3] = molecular target: T3, VDAC1 (endogenous, in PC3 cell extracts) (human, UniProt P21796 2-283); assay: as above
T3 construct: also called voltage-dependent anion channel-1
T3 sequence (P21796 2-283 limits assumed): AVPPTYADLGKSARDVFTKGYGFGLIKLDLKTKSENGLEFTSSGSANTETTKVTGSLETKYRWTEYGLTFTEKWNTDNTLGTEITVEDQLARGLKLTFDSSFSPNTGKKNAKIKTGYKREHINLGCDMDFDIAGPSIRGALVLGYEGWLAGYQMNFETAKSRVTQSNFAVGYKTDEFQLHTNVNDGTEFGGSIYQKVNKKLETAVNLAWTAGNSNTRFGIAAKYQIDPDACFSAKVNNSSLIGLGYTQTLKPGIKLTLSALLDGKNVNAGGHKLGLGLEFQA

[4] = molecular target: T4, recombinant full length human VDAC1 (hVDAC1) (human, UniProt P21796 1-283); assay: isothermal titration calorimetry, scrambled peptide injected into human recombinant VDAC
T4 construct: domain: full length; also called human recombinant VDAC; recombinant VDAC1
T4 sequence (P21796 whole entry): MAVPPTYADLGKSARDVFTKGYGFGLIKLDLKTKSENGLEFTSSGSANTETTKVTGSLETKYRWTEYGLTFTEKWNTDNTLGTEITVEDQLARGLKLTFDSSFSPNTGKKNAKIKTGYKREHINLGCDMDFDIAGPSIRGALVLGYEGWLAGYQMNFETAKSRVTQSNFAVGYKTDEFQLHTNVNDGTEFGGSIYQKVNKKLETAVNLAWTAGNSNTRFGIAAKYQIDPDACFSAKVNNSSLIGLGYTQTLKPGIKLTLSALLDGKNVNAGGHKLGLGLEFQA
Procedure: (§1) Isothermal titration calorimetry (ITC). ITC experiments were performed using MlcroCal iTC200 (Malvern). Purified full-length hVDAC1 was buffer-exchanged into 25 mM HEPES-KOH (pH 7.5), 0.1 M KCl, 5% glycerol, 2% n-Octylglucoside, and 1 mM TCEP (ITC buffer). […] The ITC binding experiments were carried out at 20° C. Peptides at a concentration of 100 μM were added by 2.47 μl injections to 10 μM hVDAC1. The data collected was processed in MicroCal Origin software (Malvern).

[5] = molecular target: Dynamin-Related Protein-1 (Drp1), endogenous in PC3 cells (human, UniProt O00429 1-736, limits assumed); assay: co-immunoprecipitation with anti-Flag from PC3 cells, Western blot
Chain of Dynamin-Related Protein-1 (Drp1), endogenous in PC3 cells (O00429 whole entry): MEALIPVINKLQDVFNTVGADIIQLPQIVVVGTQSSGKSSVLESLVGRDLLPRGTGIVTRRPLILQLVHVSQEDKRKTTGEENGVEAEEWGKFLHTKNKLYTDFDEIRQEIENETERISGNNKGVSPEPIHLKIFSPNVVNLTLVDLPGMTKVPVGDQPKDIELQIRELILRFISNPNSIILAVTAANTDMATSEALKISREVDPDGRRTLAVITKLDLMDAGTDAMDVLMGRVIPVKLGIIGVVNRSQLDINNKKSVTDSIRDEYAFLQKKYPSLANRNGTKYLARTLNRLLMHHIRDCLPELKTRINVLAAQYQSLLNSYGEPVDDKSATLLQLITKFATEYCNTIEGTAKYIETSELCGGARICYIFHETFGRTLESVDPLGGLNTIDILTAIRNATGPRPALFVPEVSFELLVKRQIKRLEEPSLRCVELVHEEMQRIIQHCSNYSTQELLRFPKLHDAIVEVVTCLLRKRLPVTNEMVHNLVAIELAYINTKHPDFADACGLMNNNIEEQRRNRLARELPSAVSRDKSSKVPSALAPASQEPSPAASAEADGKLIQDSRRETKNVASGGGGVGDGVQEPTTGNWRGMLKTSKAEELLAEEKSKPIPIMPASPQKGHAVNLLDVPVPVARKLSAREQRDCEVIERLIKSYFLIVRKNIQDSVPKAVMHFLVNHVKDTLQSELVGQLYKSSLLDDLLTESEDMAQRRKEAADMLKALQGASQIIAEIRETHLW

[6] = molecular target: T4, recombinant full length human VDAC1 …; assay: isothermal titration calorimetry, 100 µM peptide injected into 10 µM hVDAC1, 20 °C
Procedure: as §1

[7] = molecular target: T4, recombinant full length human VDAC1 …; assay: isothermal titration calorimetry, peptide injected into human recombinant VDAC
Procedure: as §1

[8] = molecular target: T2, hexokinase-I (HK-I), endogenous in PC3 …; assay: affinity chromatography of PC3 cell extracts on beads-coupled MFF peptide #8, Western blot of bound proteins
[9] = molecular target: T3, VDAC1 (endogenous, in PC3 cell extracts); assay: as above
[10] = molecular target: T1, hexokinase-II (HK-II), endogenous in …; assay: as above

B1: Flag-MFF1 Q241A (other, not shown: small tags and cut ends)
chain: MSKGTSSDTSLGRVSRAAFPSPTAAEMAEISRIQYEMEYTEGISQRMRVPEKLKVAPPNADLEQGFQEGVPNASVIMQVPERIVVAGNNEDVSFSRPADLDLIQSTPFKPLALKTPPRVLTLSERPLDFLDLERPPTTPQNEEIRAVGRLKRERSMSENAVRQNGQLVRNDSLWHRSDSAPRNKISRFQAPISAPEYTVTPSPQQARVCPPHMLPEDGANLSSARGILSLIQSSTRRAYQAILDVLDENRRPVLRGGSAAATSNPHHDNVRYGISNIDTTIEGTSDDLTVVDAASLRRQIIKLNRRLQLLEEENKERAKREMVMYSITVAFWLLNSWLWFRR
notes: also called mutant Flag-MFF Q241A
binding result [1]: binds

B2: Flag-MFF1 R225D (other, not shown: small tags and cut ends)
chain: B1 chain with R225D, A241Q
notes: also called mutant Flag-MFF R225D
binding result [1]: binds

B3: Flag-MFF1 R236D (other, not shown: small tags and cut ends)
chain: B1 chain with R236D, A241Q
notes: also called mutant Flag-MFF R236D
binding result [1]: binds

B4: Flag-MFF5 (other, human, UniProt Q9GZY8-5 1-238, looked up)
chain: MAEISRIQYEMEYTEGISQRMRVPEKLKVAPPNADLEQGFQEGVPNASVIMQVPERIVVAGNNEDVSFSRPADLDLIQSTPFKPLALKTPPRVLTLSERPLDFLDLERPPTTPQNEEIRAVGRLKRERSMSENAVRQNGQLVRNDSLPVLRGGSAAATSNPHHDNVRYGISNIDTTIEGTSDDLTVVDAASLRRQIIKLNRRLQLLEEENKERAKREMVMYSITVAFWLLNSWLWFRR
notes: also called Flag-MIFFS (misprint in legend); not shown: Flag tag
binding result [2]: no binding | binding result [3]: no binding

B5: scrambled variant of MFF peptide 8#11 (peptide)
peptide: SSQLRYLARSQRITIQLIAGS
notes: Control peptide in ITC; also called MFF scrambled peptide
binding result [4]: no binding (tested: molar ratio about 2)

B6: Flag-MFF2 (other, human, UniProt Q9GZY8-2 1-291, looked up)
chain: MAEISRIQYEMEYTEGISQRMRVPEKLKVAPPNADLEQGFQEGVPNASVIMQVPERIVVAGNNEDVSFSRPADLDLIQSTPFKPLALKTPPRVLTLSERPLDFLDLERPPTTPQNEEIRAVGRLKRERSMSENAVRQNGQLVRNDSLVTPSPQQARVCPPHMLPEDGANLSSARGILSLIQSSTRRAYQQILDVLDENRRPVLRGGSAAATSNPHHDNVRYGISNIDTTIEGTSDDLTVVDAASLRRQIIKLNRRLQLLEEENKERAKREMVMYSITVAFWLLNSWLWFRR
notes: not shown: Flag tag
binding result [5]: no binding

B7: MFF peptide #8-11 (Ser223-Leu243 of MFF1), wild type (peptide)
peptide: SARGILSLIQSSTRRAYQQIL
notes: Plain synthetic peptide (not the cell-permeable form) as used in ITC; also called WT MFF peptide #8-11; MFF (L) peptide #8-11
Kd [6]: ~12 µM | Kd [7]: 12 µM

B8: MFF peptide #8 (Asp217-Leu246 of MFF1) (peptide)
peptide: DGANLSSARGILSLIQSSTRRAYQQILDVL
notes: also called MFF #8
binding result [8]: binds | binding result [9]: binds | binding result [10]: binds
